This note sets out measurements from patent US20260008866A1 (published 2026).

Common to all, as to assay: ForteBio Octet (BLI)
The target in assay [1] is 20817.
In assay [2] the target is 20814.
Assay [3] has as its target 20809.
Assay [4] concerns the target 20807.
The target in assay [5] is 20812.

B1: Human (ligand)
chain: LFTVTVPKELYIIEHGSNVTLECNFDTGSHVNLGAITASLQKVENDTSPHRERATLLEEQLPLGKASFHIPQVQVRDEGQYQCIIIYGVAWDYKYLTLKVKASYRKINTHILKVPETDEVELTCQATGYPLAEVSWPNVSVPANTSHSRTPEGLYQVTSVLRLKPPPGRNFSCVFWNTHVRELTLASIDLQSQMEPRTHPT
Consider B1, for which the Kd in assay [1] was determined as 0.347 nM; in assay [2], 0.325 nM; in assay [3] it was 1.53 nM; in assay [4], 0.58 nM.

B2: Cyno (Fc fusion)
chain: LFTVTVPKELYIIEHGSNATLECNFDTGSHVNLGAITASLQKVENDTSPHRERATLLEEQLSLGKALFHIPQVQVRDEGQYQCIIIYGVAWDYKYLTLKVKASYRKINTHILKVPETDEVELTCQATGYPLAEVSWPNISVPANTSHSRTPEGLYQVTSVLRLKPHPGRNFSCVFWNAQVRELTLASIDLQSQIEPRTHP
In the case of B2, the Kd in assay [1] is 0.283 nM; in assay [5] it was 0.312 nM; in assay [2], 0.31 nM; in assay [3] it was 0.253 nM; in assay [4], 0.25 nM.
